Measured values: patent US20210145976A1 (ARO BIOTHERAPEUTICS, published 2021)
Changes are numbered by the printed parent chain.

B1: SEQ ID NO 37 (designed binder)
chain: MLPAPKNLVVSRVTEDSARLSWTAPDAAFDSFHIIYTEEEKEGEAIYLRVPGSERSYDLTGLKPGTEYLVEIEGVKGGKRSVPLNASFTT
notes: FN3 domain
B2: SEQ ID NO 43 (designed binder)
chain: MLPAPKNLVVSRVTEDSARLSWTAPDAAFDSFYIEYYESYPGGEAIVLTVPGSERSYDLTGLKPGTEYDVYIYGVKGGYWSRPLSAIFTT
notes: FN3 domain
B3: SEQ ID NO 54 (designed binder)
chain: B2 chain with Y33Q, E35L, Y37Q, S39N, Y40A, P41F, G42E, D69W, W80P, R82V
notes: FN3 domain
B4: SEQ ID NO 46 (designed binder)
chain: MLPAPKNLVVSRVTEDSARLSWTAPDAAFDSFTIEYFEFTGTGEAIVLTVPGSERSYDLTGLKPGTEYYVSIYGVKGGLLSAPLSAIFTT
notes: FN3 domain
B5: SEQ ID NO 48 (designed binder)
chain: B4 chain with T33V, F39Q, T40F, G41N, T42L, Y69W, S71G, L79W, A82H
notes: FN3 domain
B6: SEQ ID NO 45 (designed binder)
chain: B2 chain with Y33A, E35Y, Y37L, G42E, D69W, Y71G, Y73D, Y79T, R82S
notes: FN3 domain
B7: SEQ ID NO 56 (designed binder)
chain: B4 chain with T33V, F39A, T40L, G41E, T42G, Y69F, S71G, L79P, A82K
notes: FN3 domain
B8: SEQ ID NO 60 (designed binder)
chain: MLPAPKNLVVSRVTEDSARLSWTAPDAAFDSFTIWYAEAIGHGEAIVLTVPGSERSYDLTGLKPGTEYWVDIWGVKGGQQSKPLSAIFTT
notes: FN3 domain
B9: SEQ ID NO 55 (designed binder)
chain: B4 chain with T33I, F37W, T40V, T42Y, Y69W, S71A, L79D, A82K
notes: FN3 domain
B10: SEQ ID NO 53 (designed binder)
chain: MLPAPKNLVVSRVTEDSARLSWTAPDAAFDSFFISYIEWWDLGEAIVLTVPGSERSYDLTGLKPGTEYHVEIFGVKGGTQSYPLSAIFTT
notes: FN3 domain
B11: SEQ ID NO 57 (designed binder)
chain: B10 chain with F33S, S35K, I37L, D41Q, L42D, H69Y, E71H, F73A, T79Y, Q80R
notes: FN3 domain
B12: SEQ ID NO 47 (designed binder)
chain: B8 chain with I40L, H42D, W69F, W73Y, Q79F, Q80W, K82L
notes: FN3 domain
B13: SEQ ID NO 34 (designed binder)
chain: MLPAPKNLVVSRVTEDSARLSWTAPDAAFDSFAITYIEWWDVGEAIGLKVPGSERSYDLTGLKPGTEYRVHIQGVKGGNNSYPLDALFTT
notes: FN3 domain
B14: SEQ ID NO 35 (designed binder)
chain: MLPAPKNLVVSRVTEDSARLSWTAPDAAFDSFEIAYFEAIWNGEAIYLTVPGSERSYDLTGLKPGTEYQVEIRGVKGGPTSRPLFAWFTT
notes: FN3 domain
B15: SEQ ID NO 38 (designed binder)
chain: MLPAPKNLVVSRVTEDSARLSWTAPDAAFDSFHIAYEESHTTGEAIFLRVPGSERSYDLTGLKPGTEYSVSIEGVKGGHYSPPLTAKFTT
notes: FN3 domain

What follows are binders tested against T1, CD71 on SK-BR-3 cells (human, UniProt P02786 1-760) (assay: cell-based or functional assay).
T1 sequence (P02786 whole entry): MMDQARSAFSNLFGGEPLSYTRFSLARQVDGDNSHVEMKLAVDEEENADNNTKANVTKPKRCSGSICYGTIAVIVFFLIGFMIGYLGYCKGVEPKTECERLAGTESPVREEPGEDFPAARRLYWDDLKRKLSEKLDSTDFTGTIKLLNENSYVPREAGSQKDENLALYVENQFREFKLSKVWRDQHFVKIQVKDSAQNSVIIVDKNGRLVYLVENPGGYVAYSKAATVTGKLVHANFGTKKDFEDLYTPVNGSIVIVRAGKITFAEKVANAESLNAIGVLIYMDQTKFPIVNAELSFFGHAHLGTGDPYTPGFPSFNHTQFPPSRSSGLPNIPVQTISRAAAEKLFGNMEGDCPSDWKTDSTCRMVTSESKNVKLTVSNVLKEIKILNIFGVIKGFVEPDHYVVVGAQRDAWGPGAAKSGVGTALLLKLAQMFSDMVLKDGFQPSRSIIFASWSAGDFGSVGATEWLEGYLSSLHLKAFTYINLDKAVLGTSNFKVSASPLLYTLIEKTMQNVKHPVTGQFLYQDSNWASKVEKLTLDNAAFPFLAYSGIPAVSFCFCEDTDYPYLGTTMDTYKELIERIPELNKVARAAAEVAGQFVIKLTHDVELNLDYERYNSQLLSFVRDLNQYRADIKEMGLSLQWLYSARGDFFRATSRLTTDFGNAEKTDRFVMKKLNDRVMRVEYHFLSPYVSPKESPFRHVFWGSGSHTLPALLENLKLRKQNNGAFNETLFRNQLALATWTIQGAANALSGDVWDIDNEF

| Binder | IC50, SKBR-3 cell viability, MMAF conjugate |
| --- | --- |
| B1 | 0.15 nM |
| B2 | 0.069 nM |
| B3 | 0.4 nM |
| B4 | 2.69 nM |
| B5 | 0.42 nM |
| B6 | 8.3 nM |
| B7 | 0.24 nM |
| B8 | 0.45 nM |
| B9 | 0.026 nM |
| B10 | 0.07 nM |
| B11 | 3.13 nM |
| B12 | 5.9 nM |
| B13 | 0.37 nM |
| B14 | 2.5 nM |
| B15 | 3.82 nM |

Molecular target: T1, CD71 on SK-BR-3 cells
Assay: cell-based or functional assay
Remark: another data set of the same source

| Binder | IC50, SK-BR3 viability, MMAF conjugate, no competitor | IC50, SK-BR3 viability, MMAF conjugate, with 0.6 uM holo-human transferrin |
| --- | --- | --- |
| B1 | 0.7 nM | 143 nM |
| B2 | 0.97 nM | ~80 nM |
| B3 | 0.13 nM | 5 nM |
| B4 | 3 nM | ~100 nM |
| B5 | 1.3 nM | ~70 nM |
| B6 | 0.05 nM | 0.9 nM |
| B7 | 0.35 nM | 14.7 nM |
| B8 | 0.21 nM | 14.4 nM |
| B9 | 0.15 nM | 5.5 nM |
| B10 | 3.6 nM | ~90 nM |
| B11 | 0.38 nM | 5.3 nM |
| B12 | 1.6 nM | ~85 nM |
| B13 | 1.3 nM | 196 nM |
| B14 | 0.7 nM | 41.5 nM |
| B15 | 4 nM | ~120 nM |

The binders below were run against T2, recombinant biotinylated CD71 extracellular domain (Sino Biologics) with an N-terminal 6His tag (human, UniProt P02786 89-760, biotinylated (sites not given)) (assay: screening ELISA).
T2 construct: extracellular domain; also called hCD71; huCD71
T2 sequence (P02786 other isoform, or with tags, fused parts or gaps): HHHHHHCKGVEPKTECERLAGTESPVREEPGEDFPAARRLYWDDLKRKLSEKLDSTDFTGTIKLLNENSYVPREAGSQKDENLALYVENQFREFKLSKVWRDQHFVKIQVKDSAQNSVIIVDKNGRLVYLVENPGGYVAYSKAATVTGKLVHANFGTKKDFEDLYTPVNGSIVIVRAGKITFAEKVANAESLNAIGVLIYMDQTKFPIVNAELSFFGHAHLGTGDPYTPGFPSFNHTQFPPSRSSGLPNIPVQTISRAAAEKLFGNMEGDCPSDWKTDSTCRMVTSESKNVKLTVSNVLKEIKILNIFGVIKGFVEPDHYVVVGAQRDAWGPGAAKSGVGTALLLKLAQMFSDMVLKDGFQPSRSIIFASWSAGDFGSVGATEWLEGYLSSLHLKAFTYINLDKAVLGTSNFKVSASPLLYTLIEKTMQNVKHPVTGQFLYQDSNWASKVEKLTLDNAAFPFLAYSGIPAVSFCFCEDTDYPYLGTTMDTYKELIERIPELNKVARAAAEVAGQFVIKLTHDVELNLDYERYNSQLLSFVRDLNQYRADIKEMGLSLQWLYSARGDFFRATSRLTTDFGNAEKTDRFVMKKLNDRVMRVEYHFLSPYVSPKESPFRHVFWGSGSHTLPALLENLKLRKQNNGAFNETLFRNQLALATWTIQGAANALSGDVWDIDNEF
Protocol: (§1) To screen for FN3 domains that specifically bind CD71, streptavidin-coated Maxisorp plates (Nunc catalog 436110) were blocked for 1 hour in Starting Block T20 (Pierce) and then coated with biotinylated CD71 (using same antigen as in panning) or negative controls (an unrelated Fc-fused recombinant protein and human serum albumin) for 1 hour. Plates were rinsed with TBST and diluted lysate was applied to plates for 1 hour. Following additional rinses, wells were treated with HRP-conjugated anti-V5 tag antibody (Abcam, ab1325), for 1 hour and then assayed with POD (Roche, 11582950001).

| hCD71 | Binder |
| --- | --- |
| 1.27e+06 | B1 |
| 1.62e+06 | B2 |
| 6.99e+06 | B3 |
| 113000 | B4 |
| 943000 | B5 |
| 1.93e+06 | B6 |
| 1.13e+07 | B7 |
| 4.48e+06 | B8 |
| 1.11e+07 | B9 |
| 1.01e+06 | B10 |
| 1.9e+06 | B11 |
| 265000 | B12 |
| 310000 | B13 |
| 3.24e+06 | B14 |
| 840000 | B15 |

What follows are binders tested against T2, recombinant biotinylated CD71 … (assay: screening ELISA, ratio).
Protocol: as §1

| huCD71/Fc | Binder |
| --- | --- |
| 467 | B1 |
| 199 | B2 |
| 1130 | B3 |
| 37 | B4 |
| 337 | B5 |
| 669 | B6 |
| 1510 | B7 |
| 691 | B8 |
| 1440 | B9 |
| 110 | B10 |
| 113 | B11 |
| 50.9 | B12 |
| 12 | B13 |
| 2130 | B14 |
| 202 | B15 |
